Data from patent US20140087995A1 (published 2014).
Numbered stars: 1 amine (or outer) side, 2 acyl side, 3 side chain; on linkers, the order of the positions; unused ones are H or OH. Bridge positions count the residues as written; N and C are the ends. Side chains are listed from the residue outwards. Ends that are not written are not given here. * marks the point of attachment. C20 diacid = O=C(O)CCCCCCCCCCCCCCCCCCC(=O)*; γGlu = O=C(O)[C@H](CCC(=O)[*:2])N[*:1]

Assays:
rat calcitonin receptor [1] = molecular target: T1, rat calcitonin receptor (rat, UniProt P32214 25-516); assay: ratio IC50 rat calcitonin receptor / IC50 rat amylin receptor (reference)
T1 construct: whole, on cells; Membranes of transiently transfected BHK tk'ts 13 cells (Assay VIII); also called rCTR
T1 sequence (looked up): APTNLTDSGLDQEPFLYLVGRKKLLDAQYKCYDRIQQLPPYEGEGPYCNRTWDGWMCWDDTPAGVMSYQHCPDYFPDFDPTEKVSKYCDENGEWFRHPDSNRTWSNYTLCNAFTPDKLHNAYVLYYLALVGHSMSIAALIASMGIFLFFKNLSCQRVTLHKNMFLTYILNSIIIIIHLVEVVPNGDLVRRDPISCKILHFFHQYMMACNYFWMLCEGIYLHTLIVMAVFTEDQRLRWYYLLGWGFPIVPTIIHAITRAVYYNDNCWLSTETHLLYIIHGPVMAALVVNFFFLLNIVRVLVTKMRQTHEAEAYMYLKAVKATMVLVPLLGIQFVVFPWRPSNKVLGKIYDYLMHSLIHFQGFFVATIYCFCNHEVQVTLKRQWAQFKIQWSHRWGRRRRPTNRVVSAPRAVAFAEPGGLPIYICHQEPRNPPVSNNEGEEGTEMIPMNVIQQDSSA

[2] = molecular target: T2, human calcitonin receptor (human, UniProt P30988 25-474); assay: ratio IC50 human calcitonin receptor / IC50 human amylin receptor (reference)
T2 construct: whole, on cells; Membranes of a stably transfected BHK cell line (Assay VII); also called hCTR; hCT
T2 sequence (looked up): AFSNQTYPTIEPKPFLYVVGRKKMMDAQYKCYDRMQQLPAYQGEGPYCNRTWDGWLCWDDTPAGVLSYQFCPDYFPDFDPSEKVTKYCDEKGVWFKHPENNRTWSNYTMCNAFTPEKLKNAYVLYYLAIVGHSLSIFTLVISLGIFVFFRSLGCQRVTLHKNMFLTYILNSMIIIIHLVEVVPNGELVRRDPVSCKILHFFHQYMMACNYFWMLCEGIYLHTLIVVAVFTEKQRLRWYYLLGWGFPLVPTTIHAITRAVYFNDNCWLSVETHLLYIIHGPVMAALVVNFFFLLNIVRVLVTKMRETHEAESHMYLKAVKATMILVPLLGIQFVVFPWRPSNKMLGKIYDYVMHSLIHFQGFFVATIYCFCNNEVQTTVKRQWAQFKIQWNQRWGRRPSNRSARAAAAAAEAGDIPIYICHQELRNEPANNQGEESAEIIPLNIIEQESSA
Summary of the method: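 Membranes (35 ng/μL final) + SPA beads, 50 mM Hepes pH 7.4 buffer with 1 mM CaCl2, 5 mM MgCl₂, 0.1% OA, 0.02% Tween20; 120 min, 25° C, shaking; centrifuged, counted; IC₅₀ by one-site binding competition.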

rat calcitonin receptor [3] = molecular target: T1, rat calcitonin receptor; assay: SPA competition with 125I-calcitonin, membranes of BHK cells with rat calcitonin receptor (Assay VIII)
[4] = molecular target: T3, rat amylin receptor (rat calcitonin receptor + rat RAMP 3) (rat, UniProt P32214 25-516; Q9JJ73 23-147); assay: SPA competition with 125I-rat amylin, membranes of BHK cells with rat calcitonin receptor + rat RAMP3 (Assay VI)
T3 construct: whole, on cells; Membranes of transiently transfected BHK tk'ts 13 cells (Assay VI); also called rAmylin-R; rat amylin 3(a) receptor
T3 sequence (looked up) 1: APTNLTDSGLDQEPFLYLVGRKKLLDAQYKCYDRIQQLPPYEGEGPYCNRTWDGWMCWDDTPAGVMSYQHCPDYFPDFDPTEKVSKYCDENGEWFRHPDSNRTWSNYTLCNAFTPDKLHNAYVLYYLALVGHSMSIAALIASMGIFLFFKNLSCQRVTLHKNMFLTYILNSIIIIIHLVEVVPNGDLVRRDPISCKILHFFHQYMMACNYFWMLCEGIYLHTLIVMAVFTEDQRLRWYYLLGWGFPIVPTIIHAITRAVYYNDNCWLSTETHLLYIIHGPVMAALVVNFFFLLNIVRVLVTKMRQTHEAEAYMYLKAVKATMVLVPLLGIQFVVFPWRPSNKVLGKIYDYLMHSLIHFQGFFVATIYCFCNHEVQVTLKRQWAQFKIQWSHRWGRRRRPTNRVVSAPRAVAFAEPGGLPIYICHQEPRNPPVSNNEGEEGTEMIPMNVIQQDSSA
T3 sequence (looked up) 2: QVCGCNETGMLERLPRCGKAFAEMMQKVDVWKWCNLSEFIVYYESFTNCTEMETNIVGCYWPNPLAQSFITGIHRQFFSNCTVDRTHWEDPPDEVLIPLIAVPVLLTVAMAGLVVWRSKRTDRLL

B1: N^ε1-[(4S)-4-carboxy-4-[[(4S)-4-carboxy-4-(19-carboxynonadecanoylamino)butanoyl]amino]butanoyl]-[Glu14,Arg17,Pro21,Pro27,Pro34,Arg35]-h-amylin (peptide)
peptide: K([γGlu-γGlu-C20 diacid])CNTATCATQRLAEFLRHSSPNFGAIPSSTNVGPRTY-NH2
modifications: disulfide 2-7; N-terminus assumed
SMILES: CC[C@H](C)[C@H](NC(=O)[C@H](C)NC(=O)CNC(=O)[C@H](Cc1ccccc1)NC(=O)[C@H](CC(N)=O)NC(=O)[C@@H]1CCCN1C(=O)[C@H](CO)NC(=O)[C@H](CO)NC(=O)[C@H](Cc1c[nH]cn1)NC(=O)[C@H](CCCNC(=N)N)NC(=O)[C@H](CC(C)C)NC(=O)[C@H](Cc1ccccc1)NC(=O)[C@H](CCC(=O)O)NC(=O)[C@H](C)NC(=O)[C@H](CC(C)C)NC(=O)[C@H](CCCNC(=N)N)NC(=O)[C@H](CCC(N)=O)NC(=O)[C@@H](NC(=O)[C@H](C)NC(=O)[C@@H]1CSSC[C@H](NC(=O)[C@@H](N)CCCCNC(=O)CC[C@H](NC(=O)CC[C@H](NC(=O)CCCCCCCCCCCCCCCCCCC(=O)O)C(=O)O)C(=O)O)C(=O)N[C@@H](CC(N)=O)C(=O)N[C@@H]([C@@H](C)O)C(=O)N[C@@H](C)C(=O)N[C@@H]([C@@H](C)O)C(=O)N1)[C@@H](C)O)C(=O)N1CCC[C@H]1C(=O)N[C@@H](CO)C(=O)N[C@@H](CO)C(=O)N[C@H](C(=O)N[C@@H](CC(N)=O)C(=O)N[C@H](C(=O)NCC(=O)N1CCC[C@H]1C(=O)N[C@@H](CCCNC(=N)N)C(=O)N[C@H](C(=O)N[C@@H](Cc1ccc(O)cc1)C(N)=O)[C@@H](C)O)C(C)C)[C@@H](C)O
notes: also called compound 110
For B1, the “Ratio rCT/rAmylin binding” value (rat calcitonin receptor [1]) was 113, the “Ratio hCT/hAmylin binding” value [2] was 53.6 and the IC50 (rat calcitonin receptor [3]) was 38.3 nM. For the same binder, the IC50 [4] was 0.339 nM.

B2: N^ε1-[(4S)-4-carboxy-4-[[(4S)-4-carboxy-4-(19-carboxynonadecanoylamino)butanoyl]amino]butanoyl]-[Glu14,Arg17,Pro21,Pro27,His34,Glu35]-h-amylin (peptide)
peptide: K([γGlu-γGlu-C20 diacid])CNTATCATQRLAEFLRHSSPNFGAIPSSTNVGHETY-NH2
modifications: disulfide 2-7; N-terminus assumed
SMILES: CC[C@H](C)[C@H](NC(=O)[C@H](C)NC(=O)CNC(=O)[C@H](Cc1ccccc1)NC(=O)[C@H](CC(N)=O)NC(=O)[C@@H]1CCCN1C(=O)[C@H](CO)NC(=O)[C@H](CO)NC(=O)[C@H](Cc1c[nH]cn1)NC(=O)[C@H](CCCNC(=N)N)NC(=O)[C@H](CC(C)C)NC(=O)[C@H](Cc1ccccc1)NC(=O)[C@H](CCC(=O)O)NC(=O)[C@H](C)NC(=O)[C@H](CC(C)C)NC(=O)[C@H](CCCNC(=N)N)NC(=O)[C@H](CCC(N)=O)NC(=O)[C@@H](NC(=O)[C@H](C)NC(=O)[C@@H]1CSSC[C@H](NC(=O)[C@@H](N)CCCCNC(=O)CC[C@H](NC(=O)CC[C@H](NC(=O)CCCCCCCCCCCCCCCCCCC(=O)O)C(=O)O)C(=O)O)C(=O)N[C@@H](CC(N)=O)C(=O)N[C@@H]([C@@H](C)O)C(=O)N[C@@H](C)C(=O)N[C@@H]([C@@H](C)O)C(=O)N1)[C@@H](C)O)C(=O)N1CCC[C@H]1C(=O)N[C@@H](CO)C(=O)N[C@@H](CO)C(=O)N[C@H](C(=O)N[C@@H](CC(N)=O)C(=O)N[C@H](C(=O)NCC(=O)N[C@@H](Cc1c[nH]cn1)C(=O)N[C@@H](CCC(=O)O)C(=O)N[C@H](C(=O)N[C@@H](Cc1ccc(O)cc1)C(N)=O)[C@@H](C)O)C(C)C)[C@@H](C)O
For B2, the “Ratio rCT/rAmylin binding” value (rat calcitonin receptor [1]) was 159, the “Ratio hCT/hAmylin binding” value [2] was 29.1 and the IC50 (rat calcitonin receptor [3]) was 498 nM. It also gave an IC50 [4] of 3.14 nM.

B3: N^ε1-[(4S)-4-carboxy-4-[[(4S)-4-carboxy-4-(19-carboxynonadecanoylamino)butanoyl]amino]butanoyl]-[Glu14,Arg17,Pro21,Pro27,Pro34,Glu35]-h-amylin (peptide)
peptide: K([γGlu-γGlu-C20 diacid])CNTATCATQRLAEFLRHSSPNFGAIPSSTNVGPETY-NH2
modifications: disulfide 2-7; N-terminus assumed
SMILES: CC[C@H](C)[C@H](NC(=O)[C@H](C)NC(=O)CNC(=O)[C@H](Cc1ccccc1)NC(=O)[C@H](CC(N)=O)NC(=O)[C@@H]1CCCN1C(=O)[C@H](CO)NC(=O)[C@H](CO)NC(=O)[C@H](Cc1c[nH]cn1)NC(=O)[C@H](CCCNC(=N)N)NC(=O)[C@H](CC(C)C)NC(=O)[C@H](Cc1ccccc1)NC(=O)[C@H](CCC(=O)O)NC(=O)[C@H](C)NC(=O)[C@H](CC(C)C)NC(=O)[C@H](CCCNC(=N)N)NC(=O)[C@H](CCC(N)=O)NC(=O)[C@@H](NC(=O)[C@H](C)NC(=O)[C@@H]1CSSC[C@H](NC(=O)[C@@H](N)CCCCNC(=O)CC[C@H](NC(=O)CC[C@H](NC(=O)CCCCCCCCCCCCCCCCCCC(=O)O)C(=O)O)C(=O)O)C(=O)N[C@@H](CC(N)=O)C(=O)N[C@@H]([C@@H](C)O)C(=O)N[C@@H](C)C(=O)N[C@@H]([C@@H](C)O)C(=O)N1)[C@@H](C)O)C(=O)N1CCC[C@H]1C(=O)N[C@@H](CO)C(=O)N[C@@H](CO)C(=O)N[C@H](C(=O)N[C@@H](CC(N)=O)C(=O)N[C@H](C(=O)NCC(=O)N1CCC[C@H]1C(=O)N[C@@H](CCC(=O)O)C(=O)N[C@H](C(=O)N[C@@H](Cc1ccc(O)cc1)C(N)=O)[C@@H](C)O)C(C)C)[C@@H](C)O
B3 was tested, and the “Ratio rCT/rAmylin binding” value (rat calcitonin receptor [1]) was 88.5, the “Ratio hCT/hAmylin binding” value [2] was 17.6 and the IC50 (rat calcitonin receptor [3]) was 16.1 nM. It also gave an IC50 [4] of 0.182 nM.
